Numbering of substitutions follows the chain as printed.
Columns and labels:
Test in all cases: SPR, KD relative to WT C2;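 further: biacore SPR at 37 °C, anti-C2 mAbs captured on anti-human IgG chips with alanine or serine point mutants of C2 as analyte, KD from 1:1 fit compared with wild-type C2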
human C2 D404A = target: T1, human C2 D404A (human, UniProt P06681 21-752)
T1 sequence: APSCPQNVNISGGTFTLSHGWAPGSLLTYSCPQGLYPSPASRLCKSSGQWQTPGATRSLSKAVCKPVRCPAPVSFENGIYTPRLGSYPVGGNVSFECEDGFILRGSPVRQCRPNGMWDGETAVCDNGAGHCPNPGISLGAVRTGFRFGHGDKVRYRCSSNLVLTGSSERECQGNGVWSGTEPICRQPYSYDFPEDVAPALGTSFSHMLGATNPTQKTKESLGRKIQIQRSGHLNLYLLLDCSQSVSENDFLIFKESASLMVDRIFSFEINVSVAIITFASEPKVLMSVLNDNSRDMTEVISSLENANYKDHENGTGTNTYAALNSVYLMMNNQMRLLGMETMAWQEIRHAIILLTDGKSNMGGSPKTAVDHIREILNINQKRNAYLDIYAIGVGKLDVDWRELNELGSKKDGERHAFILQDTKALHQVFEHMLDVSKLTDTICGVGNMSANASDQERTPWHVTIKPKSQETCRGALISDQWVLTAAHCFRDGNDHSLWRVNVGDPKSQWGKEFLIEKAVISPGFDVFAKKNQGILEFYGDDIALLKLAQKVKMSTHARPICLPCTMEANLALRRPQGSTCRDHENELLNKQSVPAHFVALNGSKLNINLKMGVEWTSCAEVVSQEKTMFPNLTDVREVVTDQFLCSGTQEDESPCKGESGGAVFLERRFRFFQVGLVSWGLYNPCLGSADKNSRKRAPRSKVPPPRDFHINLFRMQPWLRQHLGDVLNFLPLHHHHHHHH
Description: (§1) Surface plasmon resonance (SPR, Biacore) was used for all binding affinity analyses. In brief, goat anti-human IgG was directly immobilised onto the carboxymethyl dextran surface of CM5 sensorchips to approximately 12,000 RU using standard NHS/EDC chemistry at pH 5. The immobilised antibody surface was pre-conditioned with ten injections of polyclonal human IgG (Privigen 60 s) prepared at 1 μg/mL. Ligands (anti-C2 mAbs) were captured at the beginning of each cycle as described below. An adjacent spot or flow cell in which only Polyclonal IgG was capture was used as a reference surface. The goat anti-human IgG Fc antibody surface was regenerate in 100 mM H3PO4, injected for 45 seconds at the end of each cycle. Experiments were performed at 37° C. and the flow rate of each experiment was kept constant at 30 μL/min.
(§2) Sensogram data was double-referenced against a reference anti-IgG surface (i.e. minus anti-C2 mAb) and blank buffer injections obtained within each experiment. The binding data was fit to 1:1 (kinetic or steady-state) model using local Rmax and null refraction index (RI=0) when appropriate. Buffers and solutions were filtered (0.22 μm) prior to use.

human C2 F437A = target: T2, human C2 F437A (human, UniProt P06681 21-752)
T2 sequence: T1 sequence with A384D, F417A
Description: as §1, §2

human C2 E324A = target: T3, human C2 E324A (human, UniProt P06681 21-752)
T3 sequence: T1 sequence with E304A, A384D
Description: as §1, §2

human C2 D419A = target: T4, human C2 D419A (human, UniProt P06681 21-752)
T4 sequence: T1 sequence with A384D, D399A
Description: as §1, §2

B1: RF16-242 (antibody, human IgG4 S228P, lambda, V domains shown)
VH: EVQLLQSGAEVKKPGESLKISCKGSGYSFTSYWIGWVRQMPGKGLEWMGIIYPGDSDTRYSPSFQGQVTISADKSISTAYLQWSSLKASDTAMYYCARRGHYGDYFDYWGQGTLVTVSS
VL: SYELTQPPSVSVSPGQTARITCSGDALPKKYAYWYHQKSGQAPVLVIYEDRRRPSEIPERFSGSSSGTMATLTITGAQVEDEGVYFCYSRDRAGNQRVFGGGTQLTVLG
notes: pH-dependent anti-C2 antibody from a phage display library
Q: Which results are given for B1?
A: Fold diff (human C2 D404A): 2 fold; Fold diff (human C2 F437A): 15 fold; Fold diff (human C2 E324A): 2 fold; Fold diff (human C2 D419A): 2 fold

Reference: patent US20220332804A1 (CSL INNOVATION, published 2022)
